Measured values: the supplement of paper PMC10126150
± gives the standard deviation of the averaged measurements.

These sequences were tested on ATP (assay: switch fluorescence ratio, 500 uM ATP over buffer (Cy3 cluster intensity, sum of 5 cycles each) (fold (ratio)); higher = stronger signal-on switching upon ATP binding; sequences stand for … in TCGTCGGCAGCGTCAGATGTGTATAAGAGACAGTTTTTTTTTTTTTTTTTTTTTTTTT…TC). Settings: aptamer strand: ATP DNA aptamer (quencher-CACCTGGGGGAGTATTGCGGAGGAAGG + anchor), 100 nM annealed; ATP concentration: 500 uM.
How it was run: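 After annealing to 100 nM quencher-labelled ATP aptamer, Cy3-labelled switching-strand clusters on a modified Illumina MiSeq flow-cell were imaged in selection buffer. A second image followed after 15 min with 500 uM ATP at 22 °C, and five such buffer/ATP cycles were done, each separated by NaOH stripping and re-annealing. The fluorescence ratio, averaged per switch-domain sequence, is summed target-cycle over summed buffer-cycle Cy3 intensity per cluster, with clusters outside 100-1000 RFU excluded.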
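Also: ATP exposure 15 min at 22 °C before imaging.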

Point of comparison: ACGTTATTTG, switch fluorescence ratio 1.11 ± 0.052. Against it:
- AGAGGCTTTT — within error, 1.02 ± 0.046
- ATCGGGGTGC — lower, 1.03 ± 0.016
- CCGTGATGGG — within error, 1.14 ± 0.066
- ATTTGGGGTC — lower, 0.9644 ± 0.0056
- ATGATTTAAC — lower, 0.976 ± 0.035
- TGGGTCTCTA — lower, 1 ± 0.018
- AAGAAATTTT — lower, 0.984 ± 0.012
- CGATGTTTTT — lower, 0.957 ± 0.029
- TTTAGGGTAA — lower, 1 ± 0.03
- CGTCAACAGG — higher, 1.28 ± 0.062
- GGCTGTTATT — lower, 0.986 ± 0.039
- AATGTAATAA — within error, 1.05 ± 0.084
- GGATGATGGT — lower, 0.985 ± 0.037
- GAAGTTAGTT — lower, 0.993 ± 0.038
- GCCATCACGC — lower, 0.9836 ± 0.006
- TAATAGGGCG — within error, 1.01 ± 0.076
- CAGACGGGTC — lower, 1 ± 0.041
- GTGGTTAGGT — lower, 1 ± 0.034
- TATAATGGCT — lower, 0.9555 ± 0.0054
- TATGAGATAG — lower, 0.982 ± 0.021
- ATGGGTATCT — lower, 0.994 ± 0.033
- TGGTGGGGAT — lower, 0.985 ± 0.029
- ATGGGTAAGG — lower, 0.983 ± 0.019
- TGATGGTGCC — lower, 0.986 ± 0.014
- CGATGGGGAC — within error, 1.14 ± 0.019
- TTGCGTTGTG — lower, 0.992 ± 0.041
- ATGGATAGTC — lower, 0.986 ± 0.044
- ATTGGCAGTG — lower, 1 ± 0.021
- AGTAAGTTGG — lower, 0.967 ± 0.022
- AGTTTTGGTC — lower, 1.002 ± 0.0056
- TTATGCAAAA — within error, 1.14 ± 0.21
- AATAGTGTCC — lower, 1.01 ± 0.032
- TTACTATTCT — lower, 1.001 ± 0.0063
- ACTTATAGGA — lower, 1.03 ± 0.012
- TTGGATGTGT — lower, 0.9407 ± 0.001
- CGGTTAGGCT — within error, 1.06 ± 0.012
- TGAGCGAAGG — lower, 0.9807 ± 0.0057
- AGTGTGGCCT — lower, 1 ± 0.025
- GGGCGGCACG — lower, 0.966 ± 0.054
- GTAGCAGCAG — within error, 1.17 ± 0.018
- GGGTTCTGTA — lower, 0.985 ± 0.03
- GTGGGGTGTT — lower, 0.985 ± 0.02
- TCCACCGTCG — higher, 1.27 ± 0.065
- TAGGGTCTCA — lower, 1 ± 0.031
- ACTTGATACG — within error, 1.08 ± 0.063
- GGAAATTGAG — lower, 0.999 ± 0.021
- GGTTTACGGC — lower, 1 ± 0.016
- GGTGAAGGTG — higher, 1.355 ± 0.0092
- ACGGGGGGTT — within error, 1.05 ± 0.085
- GGTTGTATGG — lower, 0.975 ± 0.012
- TTTTGATTGA — within error, 1.03 ± 0.034
- TTAGTTATAG — lower, 1 ± 0.025
- TTCAAATTTA — lower, 0.995 ± 0.025
- TTTGGGGATT — lower, 1.01 ± 0.036
- CAGTGGGGGC — within error, 1.05 ± 0.087
- GCTAGATTTA — lower, 0.987 ± 0.021
- ATTCCGGTGG — lower, 0.989 ± 0.052
- TTTCTTTTAT — lower, 0.998 ± 0.016
- GGGCTGGCTG — within error, 0.998 ± 0.062
- CCGGTGACGA — lower, 1.053 ± 0.0041
- CTGGGGGGTC — within error, 1.24 ± 0.41
- ATGGAAGAGG — lower, 0.982 ± 0.018
- GGGGCAGTCA — lower, 0.9785 ± 0.0031
- CCGTTTTCGG — lower, 0.952 ± 0.053
- TTAATTGGCC — lower, 0.992 ± 0.055
- GTCGAGAGAA — lower, 1.01 ± 0.011
- GGTGGCGGGG — lower, 0.987 ± 0.019
- GAGCATTTCC — within error, 1.1 ± 0.043
- TTTGCGAGCG — lower, 1.01 ± 0.023
- ATTTGGTGCG — lower, 1.01 ± 0.036
- AATGGTTTTC — lower, 0.9948 ± 0.0023
- GGCGAGTGAG — within error, 1.03 ± 0.029
- CACATATTCC — within error, 1.14 ± 0.035
- AAGTGGTCCT — lower, 0.996 ± 0.018
- CTGAGGTTAT — within error, 1.04 ± 0.038
- GGCCCAGAAA — lower, 1.003 ± 0.0097
- TGGTGGGGTC — lower, 1 ± 0.034
- GTTTTTG — lower, 0.984 ± 0.031
- TTCAGGGGCT — within error, 1.43 ± 0.58
- TGTTACTAGC — lower, 1.03 ± 0.0034
- ATGTTGTCTC — lower, 1.001 ± 0.0079
- ACTTTTGGGT — lower, 0.9602 ± 0.0088
- TTGGGGGGGT — lower, 1 ± 0.03
- AGTGTCCGAT — lower, 0.9895 ± 0.0053
- AATACCGGCA — within error, 1.04 ± 0.045
- GGGGGGTAAG — lower, 1 ± 0.021
- ACTGTTAGCA — within error, 1.061 ± 0.0046
- TGCCTGCGGA — lower, 1.001 ± 0.005
- AGGGCTGCGT — lower, 0.984 ± 0.017
- TTCTATTCTT — lower, 1.02 ± 0.026
- GAGTACGAGT — lower, 1.0098 ± 0.001
- GAAAATGTTT — lower, 1.0053 ± 2.1e-05
- AAGATCGGGG — lower, 0.972 ± 0.049
- TGCGACTGG — lower, 0.9979 ± 0.0067
- GGTGCCGGGG — within error, 1.02 ± 0.042
- ATCTTCCCCC — higher, 1.55 ± 0.016
- TAGGAAGTCG — lower, 0.995 ± 0.047
- GATCTCGTGG — within error, 1.01 ± 0.056
- ATATATGTTT — lower, 0.9649 ± 0.0016
- TTCGAAGGTT — lower, 0.979 ± 0.017
- CGACTTTTGT — lower, 0.967 ± 0.013
- TTCAGGAGAC — lower, 1.01 ± 0.041
- GGGTAGGGAC — lower, 1.01 ± 0.026
- TAGGCTTTAG — lower, 1.01 ± 0.012
- GGTCCGTCGT — lower, 1.02 ± 0.038
- TGATGTGATG — lower, 0.995 ± 0.012
- GGCGGTAATG — lower, 1.036 ± 0.005
- GGAATAGGAG — lower, 1.037 ± 0.0095
- TTTTGCCATT — lower, 0.999 ± 0.035
- CTTCTGAGGT — within error, 1.74 ± 0.95
- TCAGGCCCGT — lower, 1.01 ± 0.026
- TAAAATGTGA — lower, 0.963 ± 0.021
- TACGTCTTGG — within error, 1.04 ± 0.033
- TGACGTAGTG — lower, 0.991 ± 0.028
- GCAGGGTAGC — lower, 1.04 ± 0.012
- TAGGAGAGCC — lower, 1.03 ± 0.017
- TAGGGGGGAG — lower, 0.981 ± 0.024
- GGGGAGAATG — lower, 0.9802 ± 0.0069
- TCTCCAGGAA — higher, 1.62 ± 0.3
- TAATGGGGGA — lower, 1.01 ± 0.016
- ATTATGTTTG — lower, 1.002 ± 0.0097
- CAGTTTTCGG — lower, 1 ± 0.021
- TTGACGAAAT — higher, 1.41 ± 0.03
- TTTTAAGATT — lower, 0.999 ± 0.047
- ACTTTTTTAT — lower, 1.01 ± 0.018
- CTATTATTCG — lower, 1.01 ± 0.045
- AGCTGTTTCA — lower, 0.973 ± 0.02
- CTGGCATGGA — lower, 1.01 ± 0.021
- CGTTGTGACT — lower, 0.998 ± 0.021
- GGGGGGACTT — lower, 0.983 ± 0.029
- ATTGCTCTTT — lower, 1.0037 ± 0.00058
- TATGTCCGTA — lower, 1 ± 0.013
- ACAAGATACG — within error, 1.13 ± 0.013
- TAGATCAATG — lower, 1.02 ± 0.024
- CGTTGCGAAA — lower, 1.02 ± 0.031
- GTTGGGCGGA — lower, 0.993 ± 0.029
- AGAGTGGGGG — lower, 0.971 ± 0.065
- TGGTATGGGG — within error, 1.03 ± 0.087
- TTGTTAGAAA — lower, 1.002 ± 0.0058
- ATGGTGCTGG — lower, 0.983 ± 0.035
- TGGCGAAGGT — lower, 0.9747 ± 0.0085
- ACCGGTTGGT — lower, 0.976 ± 0.01
- ACGGTTTTTG — lower, 0.993 ± 0.029
- AGTCCGATGC — higher, 1.51 ± 0.17
- CTCAATGTAT — lower, 0.989 ± 0.032
- TGATTATAGA — lower, 0.983 ± 0.03
- GGGGCCGGGG — lower, 1.01 ± 0.018
- GGTGCCTGTT — lower, 1 ± 0.011
- TATGTACGTG — within error, 1.02 ± 0.053
- GGTTAGTGTC — within error, 1.05 ± 0.047
- ATGGGGCATC — lower, 0.9907 ± 0.0082
- GCTTCTCTTA — lower, 0.974 ± 0.013
- GGGTGTTCTT — lower, 0.997 ± 0.034
- TGGGTTTCTT — lower, 1.016 ± 0.0055
- TTTTTCATGT — lower, 0.997 ± 0.044
- AGTCCTTTT — lower, 0.9882 ± 0.0095
- GCAGCCGAGT — lower, 1.013 ± 0.0098
- TAGGAGTGCT — lower, 0.9896 ± 0.0066
- GTGGGAGCGG — within error, 1.02 ± 0.042
- GTGGTGATAG — lower, 0.9652 ± 0.0041
- TTTTGAGTAG — lower, 0.987 ± 0.021
- GGGGAGATTC — lower, 0.994 ± 0.013
- GTGGATATTG — lower, 1 ± 0.028
- GGGCCTGTGA — lower, 1 ± 0.03
- GTACTAAATT — lower, 1 ± 0.023
- GACCTCGGGA — lower, 1.024 ± 0.0028
- AAAAGGGTGA — lower, 1.02 ± 0.01
- AAAGGGGAGT — within error, 1.04 ± 0.11
- CGAAGGTTTA — lower, 0.9981 ± 0.0018
- GGTCTAGGGT — lower, 1.03 ± 0.025
- GGAGACCGCT — lower, 1.02 ± 0.034
- CATTCATTGA — lower, 0.998 ± 0.049
- AAACTGTTTC — lower, 1.02 ± 0.016
- GATCTAAAAC — lower, 0.9594 ± 0.0053
- AAGTACGCGG — lower, 1.01 ± 0.046
- ATCTAAGTTC — lower, 1.01 ± 0.017
- GGCATTGGAT — lower, 0.962 ± 0.034
- TGCTTTTTGG — lower, 1.01 ± 0.032
- TATTAAGG — lower, 1.01 ± 0.011
- TATAATGTGC — lower, 1.04 ± 0.012
- ACACTGCTTA — within error, 1.02 ± 0.044
- GAGCCGTATT — within error, 1.02 ± 0.093
- TGAATATGCG — lower, 0.988 ± 0.0096
- CCAAGGGGTT — lower, 1.01 ± 0.03
- ATTAGGGTTG — lower, 0.9823 ± 0.0019
- ATCTGTGATG — lower, 0.987 ± 0.024
- AGGTGCATAC — within error, 1.45 ± 0.32
- TTTCAGGATG — lower, 0.963 ± 0.017
- ATGGTCATAA — lower, 0.993 ± 0.022
- CAGAGTCTGT — lower, 0.999 ± 0.022
- GGGAACGTTT — lower, 0.993 ± 0.011
- GGGATAGAGC — lower, 0.965 ± 0.05
- GTTGCAGGAA — lower, 0.992 ± 0.04
- CTTTGGGGCT — lower, 0.999 ± 0.038
- GATTTTTTAC — lower, 0.995 ± 0.037
- GGGTGGGACG — within error, 1.23 ± 0.16
- GATAAGAGCG — lower, 0.975 ± 0.029
- AACGGGCCCG — lower, 1 ± 0.04
- TGAAGTTAGG — lower, 1.01 ± 0.021
